Experimental data reported in paper PMC2187453.

Biological target: TCGF receptor on B6.1 cells (mouse CTL line B6.1.SF.1) (mouse (endogenous in the B6.1 CTL line))
Experiment: radioligand binding

T cell growth factor (TCGF), human, biosynthetically radiolabeled (3H-TCGF), sequence (P60568 21-153): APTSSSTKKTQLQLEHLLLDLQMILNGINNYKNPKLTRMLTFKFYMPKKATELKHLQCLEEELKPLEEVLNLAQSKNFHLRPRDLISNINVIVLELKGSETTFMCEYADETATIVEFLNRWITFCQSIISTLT

Question: With “T cell growth factor (TCGF), human, biosynthetically radiolabeled (3H-TCGF) (from UniProt P60568 21-153) (ligand)” as the sequence, how does the Kd read?
Answer: The Kd was 0.022 nM.
